Results: FireProtDB (doi:10.1021/bi050502v)

Conditions: Locusta migratoria, pH 7.4, CD, Na2HPO4 KH2PO4 10 mM 2 mM, NaCl 127 mM, reversible: yes, whole UniProt chain shown

B1: Apolipophorin-3b wild type, P10762 (protein)
chain: MNTLLAVLMLAVAAQARPDAAGHVNIAEAVQQLNHTIVNAAHELHETLGLPTPDEALNLLTEQANAFKTKIAEVTTSLKQEAEKHQGSVAEQLNRFARNLNNSIHDAATSAQPADQLNSLQSALTNVGHQWQTSQPRPSVAQEAWAPVQSALQEAAEKTKEAAANLQNSIQSAVQKPAN
- denaturant midpoint (higher = more stable) (25 °C, GdnHCl): 0.51 M
- unfolding free energy (25 °C, GdnHCl): 2.05 kcal/mol
- Tm (Thermal): 53 °C
